From publication PMC10354078, “Conformational restriction shapes the inhibition of a multidrug efflux adaptor protein” (Nature Communications, 2023)
Residue numbers refer to the chain shown, from its start.

T1: AcrB in SMALP (styrene maleic acid lipid particle) nanodiscs (E. coli, UniProt P31224 1-1049)
T1 construct: AcrB, inner membrane RND transporter of the E. coli AcrAB-TolC pump; pET15b plasmid; embedded in native lipid SMALP nanodiscs; also called trimeric AcrB SMALPs; source: E. coli C43(DE3) ΔacrAB, extracted from membranes with 2.5% SMA 2000 into native nanodiscs, purified (nickel NTA)
T1 sequence: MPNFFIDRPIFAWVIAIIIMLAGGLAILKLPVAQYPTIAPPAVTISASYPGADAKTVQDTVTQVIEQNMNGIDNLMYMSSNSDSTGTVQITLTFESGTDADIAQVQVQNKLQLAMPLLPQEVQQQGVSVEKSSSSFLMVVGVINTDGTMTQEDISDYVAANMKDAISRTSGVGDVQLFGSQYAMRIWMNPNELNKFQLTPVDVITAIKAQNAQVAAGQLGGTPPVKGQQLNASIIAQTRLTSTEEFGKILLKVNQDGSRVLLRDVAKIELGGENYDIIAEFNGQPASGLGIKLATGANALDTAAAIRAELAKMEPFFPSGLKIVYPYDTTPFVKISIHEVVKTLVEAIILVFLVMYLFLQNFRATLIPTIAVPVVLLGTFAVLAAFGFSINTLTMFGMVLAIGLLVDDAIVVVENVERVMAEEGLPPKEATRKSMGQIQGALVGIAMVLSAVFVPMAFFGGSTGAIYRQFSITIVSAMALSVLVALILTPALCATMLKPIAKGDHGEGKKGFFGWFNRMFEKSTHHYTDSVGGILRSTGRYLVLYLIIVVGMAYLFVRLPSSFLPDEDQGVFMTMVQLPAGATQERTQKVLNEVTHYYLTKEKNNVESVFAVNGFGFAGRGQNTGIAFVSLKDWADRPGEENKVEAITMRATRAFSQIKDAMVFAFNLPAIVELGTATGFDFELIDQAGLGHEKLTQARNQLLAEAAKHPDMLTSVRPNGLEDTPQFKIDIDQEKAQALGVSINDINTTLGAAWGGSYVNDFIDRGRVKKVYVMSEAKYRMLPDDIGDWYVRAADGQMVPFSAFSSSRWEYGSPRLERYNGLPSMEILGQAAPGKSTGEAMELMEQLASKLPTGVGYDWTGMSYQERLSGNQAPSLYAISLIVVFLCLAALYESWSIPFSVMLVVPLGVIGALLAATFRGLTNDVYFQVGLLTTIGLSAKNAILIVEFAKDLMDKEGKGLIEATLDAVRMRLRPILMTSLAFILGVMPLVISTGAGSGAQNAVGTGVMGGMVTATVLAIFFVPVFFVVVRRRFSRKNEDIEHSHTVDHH

B1: AcrA^L (lipidated AcrA) (natural protein)
chain: CDDKQAQQGGQQMPAVGVVTVKTEPLQITTELPGRTSAYRIAEVRPQVSGIILKRNFKEGSDIEAGVSLYQIDPATYQATYDSAKGDLAKAQAAANIAQLTVNRYQKLLGTQYISKQEYDQALADAQQANAAVTAAKAAVETARINLAYTKVTSPISGRIGKSNVTEGALVQNGQATALATVQQLDPIYVDVTQSSNDFLRLKQELANGTLKQENGKAKVSLITSDGIKFPQDGTLEFSDVTVDQTTGSITLRAIFPNPDHTLLPGMFVRARLEEGLNPNAILVPQQGVTRTPRGDATVLVVGADDKVETRPIVASQAIGDKWLVTEGLKAGDRVVISGLQKVRPGVQVKAQEVTADNNQQAASGAQPEQSKS
modifications: lipidated at Cys25 (after cleavage of signal peptide 1-24)
notes: AcrA, periplasmic adaptor protein of E. coli; full length AcrA cloned from genomic DNA; signal peptide residues 1-24 is cleaved, the protein begins at lipidated Cys25; Cloned into pET28a with NcoI and XhoI; source: E. coli C43(DE3) ΔacrAB, solubilised from membranes with 1% DDM, purified (HiTrap, SEC) in 0.03% DDM
B2: AcrA^S (soluble AcrA lacking signal peptide and lipidation) (domain or fragment)
chain: B1 chain with C1M
notes: AcrA of E. coli without signal peptide residues 1-24; Cys25 replaced by a starting methionine (Met25); not lipidated; pET28a construct; source: E. coli C43(DE3) ΔacrAB, cytosolic fraction, purified (HiTrap, SEC)

Columns and labels:
[1] = target: the molecule itself; assay: native MS; pH 6.0, 100 mM ammonium acetate; AcrA^L with 0.03% DDM (2x CMC); Synapt G2-Si or Q-Exactive UHMR
[2] = target: the molecule itself; assay: native MS; pH 7.4, 100 mM ammonium acetate; AcrA^L with 0.03% DDM
[3] = target: T1, AcrB in SMALP (styrene maleic acid …); assay: native gel or EMSA; SMA-PAGE (native PAGE for SMALPs): AcrA constructs mixed with AcrB in SMALP nanodiscs; Novex Tris-Glycine 4-20% gels, 25 mM Tris pH 8.8, 192 mM glycine, 150 V, 4 °C, Coomassie stain; conditions: both partners purified

Binder	stoichiometry N [1]	stoichiometry N [2]	stoichiometry N [3]
B1	2	≤ 5	
B2			1
